Assay [1] addresses T1, Glypican-3 on human HCC cells (Hep3B, HepG2) and in HCC tissue (human, UniProt P51654 25-554). Nature of the assay: cell-based or functional assay.
The target of assay [2] is T1, Glypican-3 on human HCC cells (Hep3B, …). Nature of the assay: confocal microscopy, Hep3B siGPC3 vs siCL. An excerpt:
The specificity of lead candidate peptide reagent binding was validated by siRNA knockdown of GPC3 in human HCC cells. The cells were transfected with siRNA to knockdown cell surface expression of GPC3. […] These cells were transfected with non-targeting siRNA (siCL) for use as control. […] FIG. 6-1D,E show ˜4-fold reduction in fluorescence intensity with both the peptide reagent and anti-GPC3 antibody, respectively, for Hep3B cells transfected with siRNA (siGPC3) to knock down GPC3 expression. […] FIG. 6-2M, N, O and P show the same result as original FIG. 6-1A, B, D and E.

Assay [3] shares this target. Nature of the assay: confocal microscopy on cells, ANOVA on log-transformed data. The text has this: (§1) FIGS. 6-2A-Q show validation of specific peptide binding to cells in vitro. On confocal microscopy, we observed strong fluorescence intensity from ALL*-Cy5.5 binding to the surface (arrow) of A) Hep3B and B) HepG2 human HCC cells, and minimal signal with C) SK-Hep1 cells. D-F) Minimal signal is observed with the scrambled control peptide QLE*-Cy5.5 for all cells. Strong binding (arrow) is also observed with AF488-labeled anti-GPC3 antibody used as a positive control for G) Hep3B and H) HepG2 and minimal signal with I) SK-Hep1. […] The Hep3B versus SK-Hep1 difference was also larger for antibody than QLE (P=2.3×10⁻⁸, 6.0-fold larger). Intensity was measured with 6 replicates per condition and fitted to an ANOVA model with terms for 9 means to log-transformed data. […] We further validated specific peptide binding to GPC3 using siRNA knockdown. […] Q) Quantified fluorescence intensities. The siCL vs siGPC3 difference was 7.4 times bigger for ALL than the same difference for QLE (P=7.8×10⁻⁵), and the difference for antibody was 8.9 times bigger than for QLE (P=2.5×10⁻⁵), by ANOVA on log-transformed data. Results are an average of 6 images collected independently.

Assay [4] has the same target. Description: flow cytometry, mean fluorescence of Hep3B cells with 0-200 nM peptide; apparent dissociation constant. The method, then:
(§2) The apparent dissociation constant (kd) was measured for the optimized GPC3 peptide to Hep3B cells to provide an assessment of peptide binding affinity. The ALL*-Cy5.5 peptide reagent was serially diluted in PBS at concentrations ranging from 0 to 200 nM in 25 nM increments and incubated with Hep3B cells. The mean fluorescence intensities was measured on flow cytometry. The equilibrium dissociation constant kd=1/kₐ was calculated by performing a least squares fit of the data to the non-linear equation I=(I₀+Iₘₐₓkₐ[X])/([…]). I₀and Iₘₐₓ are the initial and maximum fluorescence intensities, corresponding to no peptide and at saturation, respectively, and [X] represents the concentration of the bound peptide.

The target is the same in assay [5]. Description: affinity restated in the discussion of the studies (flow cytometry on Hep3B cells). The method, then:
as §2
In general terms: A flow cytometer gives signals particle by particle.

The target is the same in assay [6]. Nature of the assay: confocal microscopy on Hep3B cells with siRNA knockdown of GPC3.
Description: as §1, with “On” for “FIGS. 6-2A-Q show validation of specific peptide binding to cells in vitro. On”
The specificity of lead candidate peptide reagent binding was validated by siRNA knockdown of GPC3 in human HCC cells. The cells were transfected with siRNA to knockdown cell surface expression of GPC3. […] These cells were transfected with non-targeting siRNA (siCL) for use as control.

Assay [7] has the same target. Description: immunofluorescence on human biopsies, ANOVA on log-transformed data.
Assay [8] shares this target. Nature of the assay: confocal microscopy of xenograft and normal mouse liver sections, n=26. As for the experimental part:
FIGS. 13A-I show validation of specific peptide binding to GPC3 overexpressed in mouse HCC xenograft tumors. Confocal microscopy of A) ALL*-Cy5.5 compared to B) QLE*-Cy5.5 to sections of Hep3B xenograft tumors. Fluorescence intensities were measured from sets of 3 (dashed white) boxes with dimensions of 20×20 μm2.
The specimens were also sectioned for collection of confocal images to perform microscopic validation of peptide binding ex vivo. We found increased cell surface staining of ALL*-Cy5.5 compared with QLE*-Cy5.5 to Hep3B xenograft (arrow), FIG. 13A,B. Overexpression of GPC3 on cell surface of Hep3B xenograft was confirmed with known antibody, FIG. 13C.

This is an account of results in patent US20200010508A1 (REGENTS OF THE UNIVERSITY OF MICHIGAN, published 2020).

Ends that are not written are not given here.

T1 sequence (P51654 25-554 limits assumed): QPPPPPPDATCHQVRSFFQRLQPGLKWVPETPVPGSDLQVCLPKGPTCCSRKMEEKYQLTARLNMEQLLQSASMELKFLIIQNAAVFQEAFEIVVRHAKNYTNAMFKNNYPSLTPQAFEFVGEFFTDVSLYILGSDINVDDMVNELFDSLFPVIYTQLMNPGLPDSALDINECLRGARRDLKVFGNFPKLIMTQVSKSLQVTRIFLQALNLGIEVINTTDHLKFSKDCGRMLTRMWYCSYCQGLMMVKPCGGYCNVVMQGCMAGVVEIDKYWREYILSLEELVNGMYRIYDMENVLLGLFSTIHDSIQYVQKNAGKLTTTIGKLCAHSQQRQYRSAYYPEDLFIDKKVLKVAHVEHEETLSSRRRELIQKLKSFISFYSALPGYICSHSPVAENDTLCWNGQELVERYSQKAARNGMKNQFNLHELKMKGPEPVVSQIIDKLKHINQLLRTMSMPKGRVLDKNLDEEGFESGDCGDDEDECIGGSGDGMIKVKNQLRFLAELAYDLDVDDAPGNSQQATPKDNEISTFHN

With ALLANHEELFQT [unlabeled ALL* peptide (ALLANHEELFQT)], in assay [1], the “reduction of T/B ratio of ALL*-Cy5.5 by blocking with 3-fold unlabeled targeting peptide dose” value was 1.65 fold and the “reduction of T/B ratio of ALL*-Cy5.5 by blocking with 10-fold unlabeled targeting peptide dose” value was determined as 3.56 fold.
For QLELTFHANLEAGGGSK(sulfo‑Cy5.5) [QLE*-Cy5.5 scrambled control peptide (QLELTFHANLEA-GGGSK-Cy5.5)], in assay [1], the “target-to-background (T/B) ratio at 2 hours, in vivo whole-body NIR fluorescence imaging of Hep3B xenograft” value was determined as 1.12 and the “target-to-background ratio, in vivo NIR laparoscopy of Hep3B xenograft 2 hours after injection” value came out at 3.

B1: ALL*-Cy5.5 peptide reagent (ALLANHEELFQT-GGGSK-Cy5.5) (peptide)
peptide: ALLANHEELFQTGGGSK(sulfo‑Cy5.5)
notes: also called lead candidate GPC3 peptide; optimized GPC3 peptide
Regarding B1, the “fold reduction in fluorescence intensity on GPC3 knockdown” value in assay [2] is around 4 fold. In assay [3], the “fold, intensity difference Hep3B vs SK-Hep1 against the same difference for QLE*” value is 8.2 fold and the “fold, intensity difference HepG2 vs SK-Hep1 against the same difference for QLE*” value is 3.3 fold. Besides, the Kd in assay [4] is 71 nM. This molecule displayed a Kd in assay [5] of 71.3 nM. In assay [1], the “fluorescent intensity of ALL*-Cy5.5 against control peptide QLE*-Cy5.5, in vivo dual axes confocal endomicroscopy” value stood at 2.9 fold; the “target-to-background (T/B) ratio at 2 hours, in vivo whole-body NIR fluorescence imaging of Hep3B xenograft” value was 3.91; the “target-to-background ratio of ALL*-Cy5.5 against QLE*-Cy5.5, in vivo NIR laparoscopy” value was determined as 2.8 fold; the “target-to-background ratio, in vivo NIR laparoscopy of Hep3B xenograft 2 hours after injection” value stood at 8.3. Further, the “fold, siCL vs siGPC3 difference against the same difference for QLE” value in assay [6] was 7.4 fold. In assay [7], the “fold, signal in human HCC against adenoma” value was determined as 2.48 fold; the “fold, signal in human HCC against cirrhosis” value was found to be 2.05 fold; the “fold, signal in human HCC against normal liver” value came out at 3.43 fold. The “fold, intensity from peptide binding to HCC (Hep3B xenograft) against normal liver” value in assay [8] turned out to be 2.22 fold.
